In patent US20100166708:

Columns and labels:
[1] = tryptophan fluorescence, urea dissociation of peptide complexes, 5 µM peptide
[2] = tryptophan fluorescence, urea dissociation of peptide complexes, 25 µM peptide

Substance: delta-haemolysin
- midpoint of the unfolding curve [1]: The midpoints of the unfolding curves of 5 µM and 25 µM were 2.14 and 3.20M urea
- midpoint of the unfolding curve [2]: The midpoints of the unfolding curves of 5 µM and 25 µM were 2.14 and 3.20M urea
